As a reminder, the IC50 is the concentration that gives 50% inhibition. A higher IC50 goes with weaker potency.

This experiment addresses GLP-1 receptor (Rattus norvegicus) (UniProt P32301). As to the kind of experiment: competitive cellular ELISA against GLP-1/hIgG2 (INS-1 cells). (In general: In an ELISA, binding on a coated surface is turned into a signal by an enzyme label.)

Exendin-4, sequence (P26349 48-86): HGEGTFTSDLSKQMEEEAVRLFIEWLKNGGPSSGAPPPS
GLP-1 receptor (Rattus norvegicus), sequence (P32301 22-463): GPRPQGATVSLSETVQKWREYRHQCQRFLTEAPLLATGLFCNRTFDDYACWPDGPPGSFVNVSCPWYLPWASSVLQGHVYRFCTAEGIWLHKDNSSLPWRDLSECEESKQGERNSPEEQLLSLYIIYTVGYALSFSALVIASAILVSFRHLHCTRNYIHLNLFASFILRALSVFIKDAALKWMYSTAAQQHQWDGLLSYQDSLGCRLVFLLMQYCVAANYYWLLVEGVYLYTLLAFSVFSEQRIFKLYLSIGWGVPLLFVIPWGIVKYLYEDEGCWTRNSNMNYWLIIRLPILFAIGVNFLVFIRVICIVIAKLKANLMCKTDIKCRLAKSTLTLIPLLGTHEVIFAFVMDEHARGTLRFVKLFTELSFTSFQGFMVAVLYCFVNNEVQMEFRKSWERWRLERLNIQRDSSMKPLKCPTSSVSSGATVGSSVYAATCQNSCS

Exendin-4 (from UniProt P26349) registered an IC50 of 8.15 nM.
